Reference: US20180273587A1 (AILERON THERAPEUTICS, published 2018)
Positions of bridges follow the written chain, without caps; N, C: chain ends. Non-standard residues stand in square brackets, D forms with d. Gly(1-adamantyl) = N[C@H](C(=O)O)C12CC3CC(CC(C3)C1)C2; Phe(4-CF3) = N[C@@H](Cc1ccc(C(F)(F)F)cc1)C(=O)O; Phe(4-tBu) = CC(C)(C)c1ccc(C[C@H](N)C(=O)O)cc1; Bip = N[C@@H](Cc1ccc(-c2ccccc2)cc1)C(=O)O; Igl = N[C@H](C(=O)O)C1Cc2ccccc2C1; R8 = C=CCCCCCC[C@@](C)(N)C(=O)O; Cha = N[C@@H](CC1CCCCC1)C(=O)O; hAdm = homo-adamantyl glycine; S5 = C=CCCC[C@](C)(N)C(=O)O

B1: SEQ ID NO: 1686 (peptide)
peptide: Ac-IW[Bip]AQALR[R8]IGDAFN[S5]YYA-NH2
modifications: staple 9-16
SMILES: CC[C@H](C)[C@H](NC(C)=O)C(=O)N[C@@H](Cc1c[nH]c2ccccc12)C(=O)N[C@@H](Cc1ccc(-c2ccccc2)cc1)C(=O)N[C@@H](C)C(=O)N[C@@H](CCC(N)=O)C(=O)N[C@@H](C)C(=O)N[C@@H](CC(C)C)C(=O)N[C@@H](CCCNC(=N)N)C(=O)N[C@]1(C)CCCCCCC=CCCC[C@@](C)(C(=O)N[C@@H](Cc2ccc(O)cc2)C(=O)N[C@@H](Cc2ccc(O)cc2)C(=O)N[C@@H](C)C(N)=O)NC(=O)[C@H](CC(N)=O)NC(=O)[C@H](Cc2ccccc2)NC(=O)[C@H](C)NC(=O)[C@H](CC(=O)O)NC(=O)CNC(=O)[C@H]([C@@H](C)CC)NC1=O
notes: also called Ac-IWBipAQALR$r8IGDAFN$YYA-NH2
B2: SEQ ID NO: 1628 (peptide)
peptide: IWIAQALRAIGDEFNAYYARR
modifications: not fully specified; Ac- at N-terminus; -NH2 at C-terminus; $r8 at 9 and $ at 16 joined by all-carbon crosslinker
B3: SEQ ID NO: 1633 (peptide)
peptide: IWIAQALRAIGDAFNAYYA
modifications: not fully specified; Ac- at N-terminus; -NH2 at C-terminus; $r8 at 9 and $ at 16 joined by all-carbon crosslinker
B4: SEQ ID NO: 1693 (peptide)
peptide: Ac-IWIAQA[Igl]R[R8]IGDAFN[S5]YYA-NH2
modifications: staple 9-16
SMILES: CC[C@H](C)[C@H](NC(C)=O)C(=O)N[C@@H](Cc1c[nH]c2ccccc12)C(=O)N[C@H](C(=O)N[C@@H](C)C(=O)N[C@@H](CCC(N)=O)C(=O)N[C@@H](C)C(=O)N[C@H](C(=O)N[C@@H](CCCNC(=N)N)C(=O)N[C@]1(C)CCCCCCC=CCCC[C@@](C)(C(=O)N[C@@H](Cc2ccc(O)cc2)C(=O)N[C@@H](Cc2ccc(O)cc2)C(=O)N[C@@H](C)C(N)=O)NC(=O)[C@H](CC(N)=O)NC(=O)[C@H](Cc2ccccc2)NC(=O)[C@H](C)NC(=O)[C@H](CC(=O)O)NC(=O)CNC(=O)[C@H]([C@@H](C)CC)NC1=O)C1Cc2ccccc2C1)[C@@H](C)CC
notes: also called Ac-IWIAQAIglR$r8IGDAFN$YYA-NH2
B5: SEQ ID NO: 1689 (peptide)
peptide: Ac-IWIAQA[Gly(1-adamantyl)]R[R8]IGDAFN[S5]YYA-NH2
modifications: staple 9-16
SMILES: CC[C@H](C)[C@H](NC(C)=O)C(=O)N[C@@H](Cc1c[nH]c2ccccc12)C(=O)N[C@H](C(=O)N[C@@H](C)C(=O)N[C@@H](CCC(N)=O)C(=O)N[C@@H](C)C(=O)N[C@H](C(=O)N[C@@H](CCCNC(=N)N)C(=O)N[C@]1(C)CCCCCCC=CCCC[C@@](C)(C(=O)N[C@@H](Cc2ccc(O)cc2)C(=O)N[C@@H](Cc2ccc(O)cc2)C(=O)N[C@@H](C)C(N)=O)NC(=O)[C@H](CC(N)=O)NC(=O)[C@H](Cc2ccccc2)NC(=O)[C@H](C)NC(=O)[C@H](CC(=O)O)NC(=O)CNC(=O)[C@H]([C@@H](C)CC)NC1=O)C12CC3CC(CC(C3)C1)C2)[C@@H](C)CC
notes: also called Ac-IWIAQAAdmR$r8IGDAFN$YYA-NH2
B6: SEQ ID NO: 1643 (peptide)
peptide: Ac-IWIAQALR[R8]IGDEFA[S5]YYA-NH2
modifications: staple 9-16
SMILES: CC[C@H](C)[C@H](NC(C)=O)C(=O)N[C@@H](Cc1c[nH]c2ccccc12)C(=O)N[C@H](C(=O)N[C@@H](C)C(=O)N[C@@H](CCC(N)=O)C(=O)N[C@@H](C)C(=O)N[C@@H](CC(C)C)C(=O)N[C@@H](CCCNC(=N)N)C(=O)N[C@]1(C)CCCCCCC=CCCC[C@@](C)(C(=O)N[C@@H](Cc2ccc(O)cc2)C(=O)N[C@@H](Cc2ccc(O)cc2)C(=O)N[C@@H](C)C(N)=O)NC(=O)[C@H](C)NC(=O)[C@H](Cc2ccccc2)NC(=O)[C@H](CCC(=O)O)NC(=O)[C@H](CC(=O)O)NC(=O)CNC(=O)[C@H]([C@@H](C)CC)NC1=O)[C@@H](C)CC
B7: SEQ ID NO: 1687 (peptide)
peptide: Ac-IWIAQA[Cha]R[R8]IGDAFN[S5]YYA-NH2
modifications: staple 9-16
SMILES: CC[C@H](C)[C@H](NC(C)=O)C(=O)N[C@@H](Cc1c[nH]c2ccccc12)C(=O)N[C@H](C(=O)N[C@@H](C)C(=O)N[C@@H](CCC(N)=O)C(=O)N[C@@H](C)C(=O)N[C@@H](CC1CCCCC1)C(=O)N[C@@H](CCCNC(=N)N)C(=O)N[C@]1(C)CCCCCCC=CCCC[C@@](C)(C(=O)N[C@@H](Cc2ccc(O)cc2)C(=O)N[C@@H](Cc2ccc(O)cc2)C(=O)N[C@@H](C)C(N)=O)NC(=O)[C@H](CC(N)=O)NC(=O)[C@H](Cc2ccccc2)NC(=O)[C@H](C)NC(=O)[C@H](CC(=O)O)NC(=O)CNC(=O)[C@H]([C@@H](C)CC)NC1=O)[C@@H](C)CC
notes: also called Ac-IWIAQAChaR$r8IGDAFN$YYA-NH2
B8: SEQ ID NO: 1650 (peptide)
peptide: Ac-IWIAQALR[R8]IGDQFN[S5]YYA-NH2
modifications: staple 9-16
SMILES: CC[C@H](C)[C@H](NC(C)=O)C(=O)N[C@@H](Cc1c[nH]c2ccccc12)C(=O)N[C@H](C(=O)N[C@@H](C)C(=O)N[C@@H](CCC(N)=O)C(=O)N[C@@H](C)C(=O)N[C@@H](CC(C)C)C(=O)N[C@@H](CCCNC(=N)N)C(=O)N[C@]1(C)CCCCCCC=CCCC[C@@](C)(C(=O)N[C@@H](Cc2ccc(O)cc2)C(=O)N[C@@H](Cc2ccc(O)cc2)C(=O)N[C@@H](C)C(N)=O)NC(=O)[C@H](CC(N)=O)NC(=O)[C@H](Cc2ccccc2)NC(=O)[C@H](CCC(N)=O)NC(=O)[C@H](CC(=O)O)NC(=O)CNC(=O)[C@H]([C@@H](C)CC)NC1=O)[C@@H](C)CC
B9: SEQ ID NO: 1691 (peptide)
peptide: Ac-IWIAQA[hAdm]R[R8]IGDAFN[S5]YYA-NH2
modifications: staple 9-16
notes: also called Ac-IWIAQAhAdmR$r8IGDAFN$YYA-NH2
B10: SEQ ID NO: 1641 (peptide)
peptide: Ac-I[S5]IAQ[S5]LR[R8]IGDEFN[S5]YYA-NH2
modifications: staple 9-16, 2-6
SMILES: CC[C@H](C)[C@H](NC(C)=O)C(=O)N[C@@]1(C)CCCC=CCCC[C@@](C)(C(=O)N[C@@H](CC(C)C)C(=O)N[C@@H](CCCNC(=N)N)C(=O)N[C@]2(C)CCCCCCC=CCCC[C@@](C)(C(=O)N[C@@H](Cc3ccc(O)cc3)C(=O)N[C@@H](Cc3ccc(O)cc3)C(=O)N[C@@H](C)C(N)=O)NC(=O)[C@H](CC(N)=O)NC(=O)[C@H](Cc3ccccc3)NC(=O)[C@H](CCC(=O)O)NC(=O)[C@H](CC(=O)O)NC(=O)CNC(=O)[C@H]([C@@H](C)CC)NC2=O)NC(=O)[C@H](CCC(N)=O)NC(=O)[C@H](C)NC(=O)[C@H]([C@@H](C)CC)NC1=O
notes: also called Ac-I$IAQ$LR$r8IGDEFN$YYA-NH2
B11: SEQ ID NO: 1684 (peptide)
peptide: Ac-IW[Phe(4-tBu)]AQALR[R8]IGDAFN[S5]YYA-NH2
modifications: staple 9-16
SMILES: CC[C@H](C)[C@H](NC(C)=O)C(=O)N[C@@H](Cc1c[nH]c2ccccc12)C(=O)N[C@@H](Cc1ccc(C(C)(C)C)cc1)C(=O)N[C@@H](C)C(=O)N[C@@H](CCC(N)=O)C(=O)N[C@@H](C)C(=O)N[C@@H](CC(C)C)C(=O)N[C@@H](CCCNC(=N)N)C(=O)N[C@]1(C)CCCCCCC=CCCC[C@@](C)(C(=O)N[C@@H](Cc2ccc(O)cc2)C(=O)N[C@@H](Cc2ccc(O)cc2)C(=O)N[C@@H](C)C(N)=O)NC(=O)[C@H](CC(N)=O)NC(=O)[C@H](Cc2ccccc2)NC(=O)[C@H](C)NC(=O)[C@H](CC(=O)O)NC(=O)CNC(=O)[C@H]([C@@H](C)CC)NC1=O
notes: also called Ac-IWF4tBuAQALR$r8IGDAFN$YYA-NH2
B12: SEQ ID NO: 1648 (peptide)
peptide: Ac-IAIAQALR[R8]IGDAFN[S5]YYA-NH2
modifications: staple 9-16
SMILES: CC[C@H](C)[C@H](NC(C)=O)C(=O)N[C@@H](C)C(=O)N[C@H](C(=O)N[C@@H](C)C(=O)N[C@@H](CCC(N)=O)C(=O)N[C@@H](C)C(=O)N[C@@H](CC(C)C)C(=O)N[C@@H](CCCNC(=N)N)C(=O)N[C@]1(C)CCCCCCC=CCCC[C@@](C)(C(=O)N[C@@H](Cc2ccc(O)cc2)C(=O)N[C@@H](Cc2ccc(O)cc2)C(=O)N[C@@H](C)C(N)=O)NC(=O)[C@H](CC(N)=O)NC(=O)[C@H](Cc2ccccc2)NC(=O)[C@H](C)NC(=O)[C@H](CC(=O)O)NC(=O)CNC(=O)[C@H]([C@@H](C)CC)NC1=O)[C@@H](C)CC
B13: SEQ ID NO: 1694 (peptide)
peptide: Ac-IWIAQA[Phe(4-CF3)]R[R8]IGDAFN[S5]YYA-NH2
modifications: staple 9-16
SMILES: CC[C@H](C)[C@H](NC(C)=O)C(=O)N[C@@H](Cc1c[nH]c2ccccc12)C(=O)N[C@H](C(=O)N[C@@H](C)C(=O)N[C@@H](CCC(N)=O)C(=O)N[C@@H](C)C(=O)N[C@@H](Cc1ccc(C(F)(F)F)cc1)C(=O)N[C@@H](CCCNC(=N)N)C(=O)N[C@]1(C)CCCCCCC=CCCC[C@@](C)(C(=O)N[C@@H](Cc2ccc(O)cc2)C(=O)N[C@@H](Cc2ccc(O)cc2)C(=O)N[C@@H](C)C(N)=O)NC(=O)[C@H](CC(N)=O)NC(=O)[C@H](Cc2ccccc2)NC(=O)[C@H](C)NC(=O)[C@H](CC(=O)O)NC(=O)CNC(=O)[C@H]([C@@H](C)CC)NC1=O)[C@@H](C)CC
notes: also called Ac-IWIAQAF4CF3R$r8IGDAFN$YYA-NH2
B14: SEQ ID NO: 1649 (peptide)
peptide: Ac-IWIAQALR[R8]IGDEFN[S5]YYA-NH2
modifications: staple 9-16
SMILES: CC[C@H](C)[C@H](NC(C)=O)C(=O)N[C@@H](Cc1c[nH]c2ccccc12)C(=O)N[C@H](C(=O)N[C@@H](C)C(=O)N[C@@H](CCC(N)=O)C(=O)N[C@@H](C)C(=O)N[C@@H](CC(C)C)C(=O)N[C@@H](CCCNC(=N)N)C(=O)N[C@]1(C)CCCCCCC=CCCC[C@@](C)(C(=O)N[C@@H](Cc2ccc(O)cc2)C(=O)N[C@@H](Cc2ccc(O)cc2)C(=O)N[C@@H](C)C(N)=O)NC(=O)[C@H](CC(N)=O)NC(=O)[C@H](Cc2ccccc2)NC(=O)[C@H](CCC(=O)O)NC(=O)[C@H](CC(=O)O)NC(=O)CNC(=O)[C@H]([C@@H](C)CC)NC1=O)[C@@H](C)CC

How the values were obtained:
Experiment in all cases: Ki table, method not stated
[1] = target: BCL-XL (UniProt Q07817 1-209)
[2] = target: T1, MCL-1 (UniProt Q07820 172-327, limits assumed)
T1 construct: also called Myeloid cell leukemia 1

[3] = target: BCL-2 (UniProt P10415 1-217, limits assumed)
Chain of BCL-2 (P10415 1-217 limits assumed): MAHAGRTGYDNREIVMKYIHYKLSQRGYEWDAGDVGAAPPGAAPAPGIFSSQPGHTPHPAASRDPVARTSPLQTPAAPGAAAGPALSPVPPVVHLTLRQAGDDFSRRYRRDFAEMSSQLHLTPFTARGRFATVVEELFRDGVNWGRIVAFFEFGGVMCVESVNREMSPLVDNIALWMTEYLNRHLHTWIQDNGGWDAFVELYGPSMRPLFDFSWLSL

T1 sequence (Q07820 172-327 limits assumed): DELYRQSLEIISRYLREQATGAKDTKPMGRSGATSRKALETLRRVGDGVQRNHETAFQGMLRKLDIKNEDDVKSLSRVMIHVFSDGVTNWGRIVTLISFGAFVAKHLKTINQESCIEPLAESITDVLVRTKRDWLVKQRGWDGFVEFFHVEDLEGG
Chain of BCL-XL (Q07817 1-209): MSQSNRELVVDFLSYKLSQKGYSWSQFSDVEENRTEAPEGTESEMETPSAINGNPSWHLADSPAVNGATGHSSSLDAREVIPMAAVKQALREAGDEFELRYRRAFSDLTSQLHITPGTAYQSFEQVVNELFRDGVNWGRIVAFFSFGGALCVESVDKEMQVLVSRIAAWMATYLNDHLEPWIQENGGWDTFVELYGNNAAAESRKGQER

Binder | Ki [1] | Ki [2] | Ki [3]
B1 | 3 nM | 11 nM | 
B2 | 3.9 nM | 10.6 nM | 12.9 nM
B3 | 22.4 nM | 8.4 nM | 84.8 nM
B4 | 147 nM | 47.7 nM | 
B5 | 110 nM | 40.2 nM | 
B6 | 15.4 nM | 7 nM | 21.9 nM
B7 | 81.1 nM | 4.2 nM | 
B8 | 12 nM | 5.2 nM | 67 nM
B9 |  | 16.6 nM | 240 nM
B10 | 11.6 nM | 19.5 nM | 8.7 nM
B11 | 16.9 nM | 151 nM | 
B12 | 22.3 nM | 19.7 nM | 37.7 nM
B13 | 10.8 nM | 188 nM | 
B14 | 1.4 nM | 1.8 nM | 3.2 nM
